Laboratory results published in paper PMC2851732 (2010).
Where two headings read alike, the source gives them in different places. Ends that are not written are not given here. * marks the point of attachment. FITC = O=C1OC2(c3ccc(O)cc3Oc3cc(O)ccc32)c2ccc(NC(=S)*)cc21; βAla = NCCC(=O)O

B1: FITC-conjugated stem peptide DV2^419–440 (peptide)
chain: {FITC-βAla}-AWDFGSLGGVFTSIGKALHQVF
B2: FITC-conjugated stem peptide DV2^419–447 (peptide)
chain: {FITC-βAla}-AWDFGSLGGVFTSIGKALHQVFGAIYGAA
B3: stem peptide DV2^413–447 (peptide)
chain: AILGDTAWDFGSLGGVFTSIGKALHQVFGAIYGAA

Legend:
[1] = molecular target: T1, DV2 sE(1–395), postfusion trimer (dengue virus type 2, UniProt P12823); assay: FP
[2] = molecular target: T1, DV2 sE(1–395), postfusion trimer; assay: FP; remark: listed apart in the source

Binder | Kd [1] [nM] | Kd [2] [nM]
B1 | 250 | 
B2 | 125 | 
B3 |  | 275
